Assay results from patent US20250269048A1 (BIVICTRIX, published 2025).

T1: human CD7 on cells (human, UniProt P09564 26-240)
T1 construct: whole, on cells; Target of the FACS and cell capture values and of the kill assays on CD7 single positive cells; also called CD7+ cells; Jurkat (CD33-/CD7+)
T1 sequence (looked up): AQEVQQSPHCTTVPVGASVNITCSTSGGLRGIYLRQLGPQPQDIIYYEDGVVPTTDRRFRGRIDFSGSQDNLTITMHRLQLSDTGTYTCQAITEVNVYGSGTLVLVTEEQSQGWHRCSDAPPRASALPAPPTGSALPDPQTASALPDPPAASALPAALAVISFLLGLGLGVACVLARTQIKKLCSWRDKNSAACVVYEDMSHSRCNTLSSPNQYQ

T2: human CD7 (human, UniProt P09564 26-180, limits assumed)
T2 construct: The construct is not described
T2 sequence (looked up): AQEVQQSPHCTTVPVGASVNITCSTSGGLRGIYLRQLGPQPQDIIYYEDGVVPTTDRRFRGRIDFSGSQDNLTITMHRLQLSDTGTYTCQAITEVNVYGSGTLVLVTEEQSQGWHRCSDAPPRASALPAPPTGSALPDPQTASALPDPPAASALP


Key:
human CD7 on cells [1] = target: T1, human CD7 on cells; assay: FACS; reference 7-PP-1 WT
human CD7 on cells [2] = target: T1, human CD7 on cells; assay: FACS; cells not named
human CD7 [3] = target: T2, human CD7; assay: SPR; reference 7-PP-1 WT
human CD7 [4] = target: T2, human CD7; assay: SPR
human CD7 [5] = target: T2, human CD7; assay: SPR; reference 7-AA-WT
human CD7 on cells [6] = target: T1, human CD7 on cells; assay: cell-based or functional assay

| Binder | FACS fold reduction compared to PP WT (human CD7 on cells [1]) | FACS binding (human CD7 on cells [2]) | Fold Reduction in binding affinity compared to PP WT (Kd) (human CD7 [3]) | Kd (human CD7 [4]) | Fold Reduction in binding affinity compared to WT (Kd) (human CD7 [5]) | EC50 (nM), cytotoxicity (MTS, 96 h) on Jurkat cells (CD7+/CD33-) (human CD7 on cells [6]) |
| --- | --- | --- | --- | --- | --- | --- |
| 7-PP-4 (Fab, V domains shown) VH: QVQLQESGAELVKPGASVKLSCKASGYTFTSYWMHWVKQRPGQGLEWIGKINPSNGRTNYNEKFKSKATLTVDKSSSTAYMQLSSLTSEDSAVYYCARGGVTYDLYYYALDYWGQGTTVTVSS VL: DIELTQSPATLSVTPGDSVSLSCRASQSISNNLHWYQQKSHESPRLLIKSASQSISGIPSRFSGSGSGTDFTLSINSVETEDFGMYFCQQSNSWPYTFGGGTKLEIKR | 3740 fold | 1990 |  |  |  |  |
| 7-PP-5 (Fab, V domains shown) VH: QVQLQESGAELVKPGASVKLSCKASGYTFTSYWMHWVKQRPGQGLEWIGKINPSNGRTNYNEKFKSKATLTVDKSSSTAYMQLSSLTSEDSAVYYCARGGVYYDGYYYALDYWGQGTTVTVSS VL: DIELTQSPATLSVTPGDSVSLSCRASQSISNNLHWYQQKSHESPRLLIKSASQSISGIPSRFSGSGSGTDFTLSINSVETEDFGMYFCQQSNSWPYTFGGGTKLEIKR | 503 fold | 268 |  |  |  |  |
| 7-PP-9 (Fab, V domains shown) VH: QVQLQESGAELVKPGASVKLSCKASGYTFTSYWMHWVKQRPGQGLEWIGKINPSNGRTNYNEKFKSKATLTVDKSSSTAYMQLSSLTSEDSAVYYCARGGVTYDLYYAALDYWGQGTTVTVSS VL: DIELTQSPATLSVTPGDSVSLSCRASQSISNNLHWYQQKSHESPRLLIKSASQSISGIPSRFSGSGSGTDFTLSINSVETEDFGMYFCQQSNSWPYTFGGGTKLEIKR | 517 fold | 275 |  |  |  |  |
| 7-PP-10 (Fab, V domains shown) VH: QVQLQESGAELVKPGASVKLSCKASGYTFTSYWMHWVKQRPGQGLEWIGKINPSNGRTNYNEKFKSKATLTVDKSSSTAYMQLSSLTSEDSAVYYCARGGVYYDGYYAALDYWGQGTTVTVSS VL: DIELTQSPATLSVTPGDSVSLSCRASQSISNNLHWYQQKSHESPRLLIKSASQSISGIPSRFSGSGSGTDFTLSINSVETEDFGMYFCQQSNSWPYTFGGGTKLEIKR | 628 fold | 335 |  |  |  |  |
| 7-PP-11 (Fab, V domains shown) VH: QVQLQESGAELVKPGASVKLSCKASGYTFTSYWMHWVKQRPGQGLEWIGKINPSNGRTNYNEKFKSKATLTVDKSSSTAYMQLSSLTSEDSAVYYCARGGVYYALYYAALDYWGQGTTVTVSS VL: DIELTQSPATLSVTPGDSVSLSCRASQSISNNLHWYQQKSHESPRLLIKSASQSISGIPSRFSGSGSGTDFTLSINSVETEDFGMYFCQQSNSWPYTFGGGTKLEIKR | 105 fold | 55.9 | 69.1 fold | 0.246 µM | 93.7 fold |  |
| CD7-PP-2 CD7 binding arm (Fab, V domains shown, Heavy chain Arg57Gly) VH: QVQLQESGAELVKPGASVKLSCKASGYTFTSYWMHWVKQRPGQGLEWIGKINPSNGGTNYNEKFKSKATLTVDKSSSTAYMQLSSLTSEDSAVYYCARGGVYYDLYYYALDYWGQGTTVTVSS VL: DIELTQSPATLSVTPGDSVSLSCRASQSISNNLHWYQQKSHESPRLLIKSASQSISGIPSRFSGSGSGTDFTLSINSVETEDFGMYFCQQSNSWPYTFGGGTKLEIKR | 64.9 fold | 34.6 | 21.3 fold | 0.0757 µM | 28.8 fold |  |
| CD7-PP-3 CD7 binding arm (Fab, V domains shown, Heavy chain Arg57Lys) VH: QVQLQESGAELVKPGASVKLSCKASGYTFTSYWMHWVKQRPGQGLEWIGKINPSNGKTNYNEKFKSKATLTVDKSSSTAYMQLSSLTSEDSAVYYCARGGVYYDLYYYALDYWGQGTTVTVSS VL: DIELTQSPATLSVTPGDSVSLSCRASQSISNNLHWYQQKSHESPRLLIKSASQSISGIPSRFSGSGSGTDFTLSINSVETEDFGMYFCQQSNSWPYTFGGGTKLEIKR | 24.5 fold | 13 | 9.13 fold | 0.0325 µM | 12.4 fold |  |
| CD7-PP-6 binding arm (Fab, V domains shown, Heavy chain Asp104Ala) VH: QVQLQESGAELVKPGASVKLSCKASGYTFTSYWMHWVKQRPGQGLEWIGKINPSNGRTNYNEKFKSKATLTVDKSSSTAYMQLSSLTSEDSAVYYCARGGVYYALYYYALDYWGQGTTVTVSS VL: DIELTQSPATLSVTPGDSVSLSCRASQSISNNLHWYQQKSHESPRLLIKSASQSISGIPSRFSGSGSGTDFTLSINSVETEDFGMYFCQQSNSWPYTFGGGTKLEIKR | 18.3 fold | 9.76 | 12.7 fold | 0.0452 µM | 17.2 fold |  |
| CD7-PP-7 CD7 binding arm (Fab, V domains shown, Heavy chain Arg57Gly/Tyr108Ala) VH: QVQLQESGAELVKPGASVKLSCKASGYTFTSYWMHWVKQRPGQGLEWIGKINPSNGGTNYNEKFKSKATLTVDKSSSTAYMQLSSLTSEDSAVYYCARGGVYYDLYYAALDYWGQGTTVTVSS VL: DIELTQSPATLSVTPGDSVSLSCRASQSISNNLHWYQQKSHESPRLLIKSASQSISGIPSRFSGSGSGTDFTLSINSVETEDFGMYFCQQSNSWPYTFGGGTKLEIKR | 502 fold | 267 | 152 fold | 0.541 µM | 206 fold |  |
| CD7-PP-8 CD7 binding arm (Fab, V domains shown) VH: QVQLQESGAELVKPGASVKLSCKASGYTFTSYWMHWVKQRPGQGLEWIGKINPSNGKTNYNEKFKSKATLTVDKSSSTAYMQLSSLTSEDSAVYYCARGGVYYDLYYAALDYWGQGTTVTVSS VL: DIELTQSPATLSVTPGDSVSLSCRASQSISNNLHWYQQKSHESPRLLIKSASQSISGIPSRFSGSGSGTDFTLSINSVETEDFGMYFCQQSNSWPYTFGGGTKLEIKR | 182 fold | 96.8 | 64.3 fold | 0.229 µM | 87.2 fold |  |
| CD7-PP-12 CD7 binding arm (Fab, V domains shown, Light chain Gln27Ala) VH: QVQLQESGAELVKPGASVKLSCKASGYTFTSYWMHWVKQRPGQGLEWIGKINPSNGRTNYNEKFKSKATLTVDKSSSTAYMQLSSLTSEDSAVYYCARGGVYYDLYYYALDYWGQGTTVTVSS VL: DIELTQSPATLSVTPGDSVSLSCRASASISNNLHWYQQKSHESPRLLIKSASQSISGIPSRFSGSGSGTDFTLSINSVETEDFGMYFCQQSNSWPYTFGGGTKLEIKR | 0.004 fold | 0.002 | 1.53 fold | 0.00546 µM | 2.08 fold |  |
| BVX140-MMAE (bispecific antibody) heavy: QVQLQESGAELVKPGASVKLSCKASGYTFTSYWMHWVKQRPGQGLEWIGKINPSNGGTNYNEKFKSKATLTVDKSSSTAYMQLSSLTSEDSAVYYCARGGVYYDLYYAALDYWGQGTTVTVSSASTKGPSVFPLAPSSKSTSGGTAALGCLVKDYFPEPVTVSWNSGALTSGVHTFPAVLQSSGLYSLSSVVTVPSSSLGTQTYCCNVNHKPSNTKVDKKVEPKSCDKT light: DIELTQSPATLSVTPGDSVSLSCRASQSISNNLHWYQQKSHESPRLLIKSASQSISGIPSRFSGSGSGTDFTLSINSVETEDFGMYFCQQSNSWPYTFGGGTKLEIKRTVAAPSVFIFPPSDEQLKSGTASVVCLLNNFYPREAKVQWKVDNALQSGNSQESVTEQDSKDSTYSLSSTLTLSKADYEKHKVYACEVTHQGLSSPVTKSFNRGEC VH: EVQLVQSGAEVKKPGSSVKVSCKASGYTITDSNIHWVRQAPGQSLEWIGYIYPYNGGTDYNQKFKNRATLTVDNPTNTAYMELSSLRSEDTAFYYCVNGNPWLAYWGQGTLVTVSS VL: DIQLTQSPSTLSASVGDRVTIICRASESLDNYGIRFLTWFQQKPGKAPKLLMYAASNQGSGVPSRFSGSGSGTEFTLTISSLQPDDFATYYCQQTKEVPWSFGQGTKLEIK |  |  |  |  |  | 22.8 nM |
| BVX160-MMAE (bispecific antibody) heavy: QVQLQESGAELVKPGASVKLSCKASGYTFTSYWMHWVKQRPGQGLEWIGKINPSNGRTNYNEKFKSKATLTVDKSSSTAYMQLSSLTSEDSAVYYCARGGVYYDLYYAALDYWGQGTTVTVSSASTKGPSVFPLAPSSKSTSGGTAALGCLVKDYFPEPVTVSWNSGALTSGVHTFPAVLQSSGLYSLSSVVTVPSSSLGTQTYCCNVNHKPSNTKVDKKVEPKSCDKT light: DIELTQSPATLSVTPGDSVSLSCRASQSISNNLHWYQQKSHESPRLLIKSASQSISGIPSRFSGSGSGTDFTLSINSVETEDFGMYFCQQSNSWPYTFGGGTKLEIKRTVAAPSVFIFPPSDEQLKSGTASVVCLLNNFYPREAKVQWKVDNALQSGNSQESVTEQDSKDSTYSLSSTLTLSKADYEKHKVYACEVTHQGLSSPVTKSFNRGEC VH: EVQLVQSGAEVKKPGSSVKVSCKASGYTITDSNIHWVRQAPGQSLEWIGYIYPYNGGTDYNQKFKNRATLTVDNPTNTAYMELSSLRSEDTAFYYCVNGNPWLAYWGQGTLVTVSS VL: DIQLTQSPSTLSASVGDRVTIICRASESLDNYGIRFLTWFQQKPGKAPKLLMYAASNQGSGVPSRFSGSGSGTEFTLTISSLQPDDFATYYCQQTKEVPWSFGQGTKLEIK |  |  |  |  |  | 7.31 nM |
